Laboratory results published in doi:10.1101/313767 (bioRxiv, 2018).

How the values were obtained:
TRIB1(84–372) [1] = target: T1, TRIB1(84–372) (human, UniProt Q96RU8 84-372); experiment: ITC
T1 sequence: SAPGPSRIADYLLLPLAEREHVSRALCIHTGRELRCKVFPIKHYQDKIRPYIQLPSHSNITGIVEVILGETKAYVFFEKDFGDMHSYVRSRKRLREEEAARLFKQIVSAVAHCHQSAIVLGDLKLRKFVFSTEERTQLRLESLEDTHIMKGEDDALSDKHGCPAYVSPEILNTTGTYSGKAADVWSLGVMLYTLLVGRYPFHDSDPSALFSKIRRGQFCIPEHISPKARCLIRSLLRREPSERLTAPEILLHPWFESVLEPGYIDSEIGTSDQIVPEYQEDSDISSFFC

[2] = target: T2, TRIB1(84–343), the pseudokinase part of the crystallised fusion (human, UniProt Q96RU8 84-343); experiment: crystal structure
T2 sequence: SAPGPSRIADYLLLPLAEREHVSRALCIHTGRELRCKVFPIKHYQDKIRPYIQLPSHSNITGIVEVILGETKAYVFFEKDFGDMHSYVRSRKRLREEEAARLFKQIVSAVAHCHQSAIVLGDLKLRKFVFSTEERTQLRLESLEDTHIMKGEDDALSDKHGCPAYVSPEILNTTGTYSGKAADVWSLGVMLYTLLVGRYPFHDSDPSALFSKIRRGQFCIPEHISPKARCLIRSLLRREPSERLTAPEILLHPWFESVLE

WT GST-TRIB1(84–372) = target: T3, WT GST-TRIB1(84–372) (human, UniProt Q96RU8 84-372); experiment: pull-down
T3 sequence: T1 sequence

TRIB1(84–372) [3] = target: T1, TRIB1(84–372); experiment: differential scanning fluorimetry

| Binder | binding result (TRIB1(84–372) [1]) | other results |
| --- | --- | --- |
| GDMCEHEASIDLSAYIESGEEQL [C/EBPε(31–53) fused to maltose-binding protein] | binds |  |
| GGICEHETSIDISAYIDPAAFND [C/EBPα(53–75), the degron part of the crystallised fusion] |  | binding result [2]: binds |
| GGICEHETSIDISAYIDPAAFND [His6MBP-C/EBPα(53–75)] | binds | binding result (WT GST-TRIB1(84–372)): binds |
| PAMYDDESAIDFSAYIDSMAAVP [C/EBPδ(50–72) fused to maltose-binding protein] | binds |  |
| GGICEHETSIDISAYIDPAAFND [C/EBPα peptide (53–75)] |  | binding result (TRIB1(84–372) [3]): binds |
